We go through 1 substance from patent US20150024402A1.

Assay [1] has as its target Human Serum Albumin (HSA) (human) (UniProt P02768). The experiment in a line: LSPR absorbance shift of HSA-conjugated gold nanorods; 37.5 ug/mL HSA (partial coverage), BSA block, 60 min incubation.
For assay [2] the target is unchanged. Briefly: LSPR absorbance shift of HSA-conjugated gold nanorods; carboxyl groups blocked with BSA at 200 ug/mL, 60 min incubation.
Assay [3] shares this target. The experiment in a line: LSPR absorbance shift of HSA-conjugated gold nanorods; 18.75 ug/mL HSA (partial coverage), BSA block, 60 min incubation.
The target is the same in assay [4]. The experiment in a line: LSPR absorbance shift of HSA-conjugated gold nanorods; carboxyl groups blocked with ovalbumin at 200 ug/mL, 60 min incubation.
The target is the same in assay [5]. Briefly: LSPR absorbance shift of HSA-conjugated gold nanorods; carboxyl groups blocked with mPEG-NH2 at 16700 ug/mL, 60 min incubation.
The target is the same in assay [6]. Briefly: LSPR absorbance shift of HSA-conjugated gold nanorods in suspension, dose response at equilibrium; 18.75 ug/mL HSA (partial coverage), BSA block, 30 min incubation.
Assay [7] shares this target. Briefly: LSPR absorbance shift of HSA-conjugated gold nanorods; 600 ug/mL HSA (full coverage), BSA block, 60 min incubation; filing says the value deviates through ligand depletion.
Assay [8] shares this target. Briefly: LSPR absorbance shift of HSA-conjugated gold nanorods in suspension, dose response at equilibrium; 600 ug/mL HSA (full coverage), BSA block, 30 min incubation; filing says the value deviates through ligand depletion.

UniProt P02768, sequence (P02768 25-609 limits assumed): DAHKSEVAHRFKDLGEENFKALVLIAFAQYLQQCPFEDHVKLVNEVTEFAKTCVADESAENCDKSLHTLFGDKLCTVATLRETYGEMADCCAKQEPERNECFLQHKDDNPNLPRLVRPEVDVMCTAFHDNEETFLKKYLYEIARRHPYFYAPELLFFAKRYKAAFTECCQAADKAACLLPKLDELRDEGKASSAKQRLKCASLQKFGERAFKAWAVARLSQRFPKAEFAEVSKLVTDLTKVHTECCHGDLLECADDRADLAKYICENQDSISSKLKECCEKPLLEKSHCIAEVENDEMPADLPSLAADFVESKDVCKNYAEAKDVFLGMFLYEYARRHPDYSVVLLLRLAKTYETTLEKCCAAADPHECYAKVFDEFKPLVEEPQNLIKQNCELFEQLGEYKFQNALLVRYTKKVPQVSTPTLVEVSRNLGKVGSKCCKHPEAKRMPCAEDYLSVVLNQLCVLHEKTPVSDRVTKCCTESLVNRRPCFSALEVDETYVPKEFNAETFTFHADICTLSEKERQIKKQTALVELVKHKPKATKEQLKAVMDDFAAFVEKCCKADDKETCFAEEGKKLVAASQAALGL

Broadly, the Kd is the free concentration of one partner at which half of the binding sites on the other are occupied at equilibrium, for simple one-to-one binding. Turning to “Anti-Human Serum Albumin monoclonal antibody (ab18081, available from Abcam)”, the Kd was 5.5 nM in assay [1]; 8.44 nM in assay [2]; 3.8 nM in assay [3]; 5.22 nM in assay [4]; 2.5 nM in assay [5]; 6.41 nM in assay [6]. Further, the Kd in assay [7] came to 252 nM; in assay [8] it was 99.4 nM.
